Series [1] deals with T1, human ZnT7 (hZnT7) with an N-terminal PA-tag (human, UniProt Q8NEW0).
T1 construct: human zinc transporter ZnT7, UniProt Q8NEW0; cDNA synthesized with codon optimization; the final model holds residues 22-376; In the antibody screening the purified protein was reconstituted into (biotinylated) proteoliposomes; also called hZnT7 WT; wild-type hZnT7
As to the kind of experiment: ELISA + SEC; liposome ELISA on biotinylated hZnT7 proteoliposomes immobilised on streptavidin-coated microplates (with negative selection on SDS-denatured hZnT7); formation of stable complexes by fluorescence-detection SEC. On the technique in general: ELISA stands for enzyme-linked immunosorbent assay.

Series [2] deals with T1, human ZnT7 (hZnT7) with an N-terminal …. The series is described as follows: cryo-EM structure; single-particle cryo-EM of hZnT7-Fab complexes purified by SEC in 0.02% GDN (Talos Arctica for first maps, CRYO ARM 300II for final data); samples with 1 mM EDTA, with 10 µM Zn2+ or with 200 or 300 µM Zn2+ added. The conditions noted are these: both partners purified. For orientation: SEC sorts molecules by how far they enter the pores of the column.

Series [3] deals with the molecule itself. The description is as above.

One may read the stoichiometry N as a count of units in the complex or per binding partner.

B1: mouse monoclonal antibody YN7114-08 against hZnT7 (parent of Fab#1) (antibody, V domains shown)
VH: EVQLQESGPGLVAPSQSLSITCTVSGFSLTNYAVHWVRQSPGKGLEWLGVIWSNGRTDYNAAFISRLSISKDNSKSQVFFKMNSLQADDTAIYYCARKLAYEGAMDYWGQGTSVTVSS
VL: DIVLTQSPASLAVSLRRRATISCRASESVDGYGHSFMHWYQQKSGQPPKLLIYRASNLESGVPARFSGSGSRTDFTLTIDPVEADDAATYYCQQSNEDPYTFGSGTKLEIK
notes: Whole antibody as screened by liposome ELISA and fluorescence-detection SEC; source: mouse hybridoma (MRL/lpr mice immunised with hZnT7 proteoliposomes)
B1: in series [1], the binding result is recorded as “binds”.

B2: Fab#1 (YN7114-08), Fab fragment of a mouse monoclonal antibody against hZnT7 (Fab, V domains shown)
VH: B1 VH
VL: B1 VL
notes: the model holds Fab heavy chain residues 1-234; also in the deposited PDB entries; the model holds Fab light chain residues 1-218; also called the Fab fragment; source: Fab fragment of a mouse monoclonal antibody (hybridoma, MRL/lpr mice immunised with hZnT7 proteoliposomes)
In the case of B2, the binding result in series [2] is reported as “binds”.

B3: hZnT7ΔHis-loop (residues His176 to Pro221 deleted), PA-tagged (natural protein, human)
chain: MLPLSIKDDEYKPPKFNLFGKISGWFRSILSDKTSRNLFFFLCLNLSFAFVELLYGIWSNCLGLISDSFHMFFDSTAILAGLAASVISKWRDNDAFSYGYVRAEVLAGFVNGLFLIFTAFFIFSEGVERALAPPDVHHERLLLVSILGFVVNLIGIFVFKHGGHGHSHGSGHGHSSLKETTGPSRQILQGVFLHILADTLGSIGVIASAIMMQNFGLMIADPICSILIAILIVVSVIPLLRESVGILMQRTPPLLENSLPQCYQRVQQLQGVYSLQEQHFWTLCSDVYVGTLKLIVAPDADARWILSQTHNIFTQAGVRQLYVQIDFAAM
notes: human zinc transporter ZnT7, UniProt Q8NEW0, with the major portion of the His-loop (His176 to Pro221) deleted; Primers are in Supplementary Data 1; The dimer (copies 2) follows from the 'OF-OF form' and the C2 symmetry; also called hZnT7∆His-loop; pcDNA3.1-PA-hZnT7ΔHis-loop; source: HEK293T, transfected (pcDNA3.1, PEI), purified (anti-PA-tag antibody beads, SEC)
As to B3, the binding result in series [3] is given as “binds”.

B4: human ZnT7 (hZnT7) with an N-terminal PA-tag (natural protein)
chain: MLPLSIKDDEYKPPKFNLFGKISGWFRSILSDKTSRNLFFFLCLNLSFAFVELLYGIWSNCLGLISDSFHMFFDSTAILAGLAASVISKWRDNDAFSYGYVRAEVLAGFVNGLFLIFTAFFIFSEGVERALAPPDVHHERLLLVSILGFVVNLIGIFVFKHGGHGHSHGSGHGHSHSLFNGALDQAHGHVDHCHSHEVKHGAAHSHDHAHGHGHFHSHDGPSLKETTGPSRQILQGVFLHILADTLGSIGVIASAIMMQNFGLMIADPICSILIAILIVVSVIPLLRESVGILMQRTPPLLENSLPQCYQRVQQLQGVYSLQEQHFWTLCSDVYVGTLKLIVAPDADARWILSQTHNIFTQAGVRQLYVQIDFAAM
notes: human zinc transporter ZnT7, UniProt Q8NEW0; cDNA synthesized with codon optimization; the final model holds residues 22-376; In the antibody screening the purified protein was reconstituted into (biotinylated) proteoliposomes; also called hZnT7 WT; wild-type hZnT7
As to B4, the “stoichiometry N” value in series [3] is 2.

The values above are taken from paper PMC10409766, “Cryo-EM structures of human zinc transporter ZnT7 reveal the mechanism of Zn^2+ uptake into the Golgi apparatus” (Nature Communications, 2023).
